What was measured:
Assay in all cases: Southwestern blot; no change vs WT; EMSA: LightShift kit binding buffer, 20 min, room temperature, 5% native PAGE; Southwestern: 2 ug protein on nitrocellulose renatured in TNED buffer, 20 pmol biotin DNA, 12 h, room temperature; SPR: Biacore, NTA chip (~100 RU protein), buffer not given
Details in all cases: protein: recombinant; tags: His (pET-30a); label: 5'-C6-biotin (both oligos by primer name); blunt
rMbovP475-265NQ266 = target: T1, rMbovP475-265NQ266 (Mycoplasma bovis HB0801, UniProt A0A454AQS7 1-368, N265A;Q266A)
T1 sequence: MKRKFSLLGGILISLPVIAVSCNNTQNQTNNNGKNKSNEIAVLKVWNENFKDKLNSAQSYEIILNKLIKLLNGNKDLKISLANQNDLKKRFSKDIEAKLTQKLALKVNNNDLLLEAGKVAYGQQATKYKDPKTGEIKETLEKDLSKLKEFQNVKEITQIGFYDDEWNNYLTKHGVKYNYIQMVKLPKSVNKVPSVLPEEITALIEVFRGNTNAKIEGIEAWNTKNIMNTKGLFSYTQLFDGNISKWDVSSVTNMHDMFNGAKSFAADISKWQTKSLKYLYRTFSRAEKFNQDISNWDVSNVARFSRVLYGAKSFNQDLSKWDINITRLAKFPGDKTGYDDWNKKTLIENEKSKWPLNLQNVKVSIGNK

MbovP475∆DB2 = target: T2, MbovP475∆DB2 (Mycoplasma bovis HB0801, UniProt A0A454AQS7 1-298+333-368, internal_change)
T2 sequence: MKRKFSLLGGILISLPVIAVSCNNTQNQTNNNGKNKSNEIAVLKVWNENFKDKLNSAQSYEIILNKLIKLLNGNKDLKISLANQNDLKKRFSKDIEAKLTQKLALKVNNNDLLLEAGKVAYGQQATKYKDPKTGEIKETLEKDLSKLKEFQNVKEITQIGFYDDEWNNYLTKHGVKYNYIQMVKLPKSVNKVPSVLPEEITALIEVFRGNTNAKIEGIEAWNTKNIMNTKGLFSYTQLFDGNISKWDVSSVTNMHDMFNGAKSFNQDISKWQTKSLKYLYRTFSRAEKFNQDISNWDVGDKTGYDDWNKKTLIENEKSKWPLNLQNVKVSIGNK

MbovP475∆DB3 = target: T3, MbovP475∆DB3 (Mycoplasma bovis HB0801, UniProt A0A454AQS7 1-338)
T3 sequence: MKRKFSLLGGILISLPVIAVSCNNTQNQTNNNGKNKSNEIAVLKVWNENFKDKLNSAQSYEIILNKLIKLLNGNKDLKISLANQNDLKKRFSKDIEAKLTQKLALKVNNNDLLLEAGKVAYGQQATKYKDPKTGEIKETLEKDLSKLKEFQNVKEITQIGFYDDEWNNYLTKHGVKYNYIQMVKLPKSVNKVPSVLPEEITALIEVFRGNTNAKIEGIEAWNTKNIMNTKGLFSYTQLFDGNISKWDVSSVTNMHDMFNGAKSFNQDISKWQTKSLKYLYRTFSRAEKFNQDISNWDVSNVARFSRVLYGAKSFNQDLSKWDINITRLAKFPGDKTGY

Measured: binding result

B1: CRYAB promoter (+108 to +167) (dsDNA)
DNA 1: TCTCTTCCCAGCTTCTACTTCCCTGAGCCCCTTCTACCTTCGGCCGCCCTCATTTCTGCG
DNA 2: CGCAGAAATGAGGGCGGCCGAAGGTAGAAGGGGCTCAGGGAAGTAGAAGCTGGGAAGAGA
binds: all assays above

B2: MCF2L2 promoter (+53 to +112) (dsDNA)
DNA 1: CAACTAACACTTTACGGGAGTGGGCACATCATTCCTGAATAAGGACACGCGCGTGCGCAC
DNA 2: GTGCGCACGCGCGTGTCCTTATTCAGGAATGATGTGCCCACTCCCGTAAAGTGTTAGTTG
binds: all assays above

From paper PMC9487752, “Novel mycoplasma nucleomodulin MbovP475 decreased cell viability by regulating expression of CRYAB and MCF2L2”
